Measured values reported in the supplement of paper PMC10724198.
± gives the standard deviation of the averaged measurements.

Tested on: Saccharomyces cerevisiae
Experiment: protein stability index of tFT-peptide fusion (C-terminal peptide) (PSI (0-1 scale)); higher = more stable (slower turnover)
Conditions: genetic background: wild type; temperature: 30 C
Method: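 Multiplexed protein stability (MPS) profiling in S. cerevisiae. Random 12-aa peptides (tFT-X12 library) are fused to the C-terminus of a sfGFP-mCherry tandem fluorescent timer, after mCherry and a GGGS linker. Cells are FACS-sorted into 8 mCherry/sfGFP bins and deep-sequenced. The protein stability index (PSI) is the read-weighted bin average, scaled from 0 (unstable) to 1 (stable). Only peptides with >10 reads are reported; cells were grown at 30 °C in SC-His with glucose.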
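Note: PSI is a weighted mean of sequencing reads over stability bins, variants kept only with over 10 reads, mCherry proximal and sfGFP distal, peptide attached via GGGS linker.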

## PTPIPLGLHSLS
  protein stability index: 0.705 ± 0.048

## PFLTSPPPLPLH
  protein stability index: 0.632 ± 0.031

## RVLRREKPVVHC
  protein stability index: 0.603 ± 0.008

## AVCGPHLYPRVI
  protein stability index: 0.643 ± 0.022

## GSAGSAVRNVVS
  protein stability index: 0.647 ± 0.051

## FLPTALTQPLIT
  protein stability index: 0.624 ± 0.028

## SLFLVLSLAQLL
  protein stability index: 0.579 ± 0.066

## VVFQSLPCLSPP
  protein stability index: 0.758 ± 0.037

## RVWRLIGFHVSS
  protein stability index: 0.713 ± 0.012

## GLYCDDSYPRPH
  protein stability index: 0.666 ± 0.1

## FFVIIPAKSWLG
  protein stability index: 0.546 ± 0.03

## SPEVIHVVFCDL
  protein stability index: 0.697 ± 0.043

## NVLVRFFSSGVW
  protein stability index: 0.85 ± 0.047

## LLPFIPPPPCPP
  protein stability index: 0.658 ± 0.02

## EQKYHTCEDAQK
  protein stability index: 0.685 ± 0.1

## RFTIPFSVQRVD
  protein stability index: 0.721 ± 0.094

## VGLTGFQHTEWG
  protein stability index: 0.753 ± 0.027

## WVCLGWGVPRSG
  protein stability index: 0.835 ± 0.031

## EDCTKNPERDNS
  protein stability index: 0.68 ± 0.048

## CWSRLADSFVSL
  protein stability index: 0.683 ± 0.05

## SLFLSRRSLYRV
  protein stability index: 0.738 ± 0.034

## DSPLSHPPSPAP
  protein stability index: 0.6235 ± 0.0019

## GGGGGGGGAWSG
  protein stability index: 0.723 ± 0.037

## PFAGLFFFFVPF
  protein stability index: 0.58 ± 0.033

## DHPFFCWDGVVK
  protein stability index: 0.687 ± 0.069

## VALPPSHLSAFL
  protein stability index: 0.6887 ± 0.0039

## PPFTLRPQVPTH
  protein stability index: 0.664 ± 0.0097

## MAVVSDDRDINC
  protein stability index: 0.681 ± 0.056

## CLSGVLDFLLFL
  protein stability index: 0.648 ± 0.0085

## RGSAPLFVPLSP
  protein stability index: 0.7106 ± 0.0069

## VAPPLAPSPPLP
  protein stability index: 0.6678 ± 0.0013

## ISVPMPSFGPLP
  protein stability index: 0.6938 ± 0.002

## EGRKTLWEGNRG
  protein stability index: 0.609 ± 0.059

## GGVCCGGLRGVS
  protein stability index: 0.7398 ± 0.0039

## LHRCRPPCSIHL
  protein stability index: 0.816 ± 0.036

## VYGWSPLSEARN
  protein stability index: 0.738 ± 0.025

## RKMQKKFESKKM
  protein stability index: 0.76 ± 0.039

## SPLPRLPPGPLP
  protein stability index: 0.68 ± 0.03

## GVAISSGNHINH
  protein stability index: 0.654 ± 0.12

## LVRVFGQSPAPL
  protein stability index: 0.696 ± 0.031

## NKFSAFSPETWS
  protein stability index: 0.7385 ± 0.00092

## FCVVGKGWKGEG
  protein stability index: 0.626 ± 0.0098

## LPPPSPPPIPSP
  protein stability index: 0.688 ± 0.06

## PPRPPPPPSPPL
  protein stability index: 0.745 ± 0.027

## QGQAAHEHFHGR
  protein stability index: 0.654 ± 0.042

## HIIRGDCVGVLG
  protein stability index: 0.618 ± 0.017

## GTGSVHYHRSGL
  protein stability index: 0.676 ± 0.016

## PPYSPSPRDPFA
  protein stability index: 0.713 ± 0.047

## FCLPVFCVPSHF
  protein stability index: 0.634 ± 0.11

## TPSRLPPPLRSP
  protein stability index: 0.703 ± 0.004

## KEDGEIIDRYVL
  protein stability index: 0.616 ± 0.074

## VIPREPSEPHTA
  protein stability index: 0.639 ± 0.021

## WVSILRWDACSR
  protein stability index: 0.685 ± 0.014

## GDLASASAWGVR
  protein stability index: 0.681 ± 0.026

## LLSPPPAPRPPH
  protein stability index: 0.696 ± 0.067

## GVGVGDCVRCMV
  protein stability index: 0.619 ± 0.008

## RCPLSFLRCSMA
  protein stability index: 0.586 ± 0.018

## QCVSGLGPVVRT
  protein stability index: 0.7329 ± 0.0029

## AHFSRRSSSSVS
  protein stability index: 0.7 ± 0.02

## PPSLFSSTQLLF
  protein stability index: 0.7095 ± 0.0067

## QIQRSGGGGHCG
  protein stability index: 0.739 ± 0.0028

## TAPSGIYFSLPL
  protein stability index: 0.66 ± 0.054

## VGAGAGGVGWVL
  protein stability index: 0.749 ± 0.056

## WLVGSGGVWSGR
  protein stability index: 0.706 ± 0.019

## DCPAVLLYAVNW
  protein stability index: 0.501 ± 0.054

## LRSCLARGLFFG
  protein stability index: 0.7426 ± 0.0066

## LRVQASALHVLQ
  protein stability index: 0.667 ± 0.021

## CARYFFLHPSLG
  protein stability index: 0.67961 ± 1.3e-05

## QPGTPLSPPPSP
  protein stability index: 0.49 ± 0.019

## VSTVFGCDICST
  protein stability index: 0.701 ± 0.034

## SSSRHHTSLFSP
  protein stability index: 0.679 ± 0.014

## DRLGADCPLLSG
  protein stability index: 0.734 ± 0.028

## CAGRVWVGLCGV
  protein stability index: 0.685 ± 0.094

## VEGCVKGGCGGG
  protein stability index: 0.662 ± 0.052

## MLLSKRHFESDV
  protein stability index: 0.692 ± 0.018

## GPPRDLARKAGL
  protein stability index: 0.708 ± 0.065

## LACTSPLLLRFR
  protein stability index: 0.673 ± 0.023

## RTRMSEGECIST
  protein stability index: 0.708 ± 0.053

## AVAIGQGLSAGV
  protein stability index: 0.686 ± 0.053

## WMSGETTHTGRP
  protein stability index: 0.742 ± 0.026

## SRKKSKQYRQEK
  protein stability index: 0.716 ± 0.039

## PIPPPAPPPAPP
  protein stability index: 0.6778 ± 0.0036

## PGTGAASGTGGA
  protein stability index: 0.689 ± 0.012

## RLVISPRSRPCP
  protein stability index: 0.725 ± 0.069

## PLSHSPPAPSSP
  protein stability index: 0.658 ± 0.026

## LGKSGLTILCRD
  protein stability index: 0.5954 ± 0.003

## ILKKLNQEINKE
  protein stability index: 0.698 ± 0.028

## PASRLHSPSSPP
  protein stability index: 0.703 ± 0.038

## HSRGGEPLTPAW
  protein stability index: 0.642 ± 0.092

## CASPSPPPAPVL
  protein stability index: 0.68 ± 0.022

## PAGPPHPCPHPS
  protein stability index: 0.708 ± 0.05

## IHTNICKSKDII
  protein stability index: 0.706 ± 0.025

## VLFPPGFPPGLL
  protein stability index: 0.817 ± 0.04

## FGRAGAGERRGA
  protein stability index: 0.722 ± 0.28

## GSSRRWPGGRTI
  protein stability index: 0.671 ± 0.073

## GRCIQHPYKVNI
  protein stability index: 0.679 ± 0.017

## KKRDKKKLRRVE
  protein stability index: 0.672 ± 0.044

## CGGKTEKRKKYT
  protein stability index: 0.6062 ± 0.0034
